Biological target: T1, human CCR5 chemokine receptor (Homo sapiens, UniProt P51681)
T1 construct: host or cells: Chinese Hamster Ovary (CHO) cells; membranes prepared from the cell pellet
Experiment: CC-Chemokine Receptor-5 Binding by Scintillation Proximity Assay (CCR5 SPA), displacement of 125I-MIP1α
Conditions: standard compound, 14-point concentration-response curve in triplicate, starting concentration 1 μM
Description: CC-Chemokine Receptor-5 Binding by Scintillation Proximity Assay (CCR5 SPA)
Scintillation Proximity Assay for the Human CC-Chemokine Receptor, CCR-5
This protocol describes a high-throughput screen using SPA binding to identify compounds that inhibit binding of ^125I-MIP1α to the human CCR5 chemokine receptor.
Human CCR5 receptors were expressed in Chinese Hamster Ovary (CHO) cells, registration # 12025. Cells were grown in suspension and a 50 to 80 ml CCR5 cell pellet was prepared. […]
The saturation curve binding experiment is performed by adding varying amounts of [^125I]MIP1α (0-8.5 nM to membranes and beads in concentrations chosen from the optimal protein/bead ratio. The data is analyzed using a non-linear curve-fitting program. The Kd and Bmax are derived from the curve. […]

T1 sequence (P51681 whole entry): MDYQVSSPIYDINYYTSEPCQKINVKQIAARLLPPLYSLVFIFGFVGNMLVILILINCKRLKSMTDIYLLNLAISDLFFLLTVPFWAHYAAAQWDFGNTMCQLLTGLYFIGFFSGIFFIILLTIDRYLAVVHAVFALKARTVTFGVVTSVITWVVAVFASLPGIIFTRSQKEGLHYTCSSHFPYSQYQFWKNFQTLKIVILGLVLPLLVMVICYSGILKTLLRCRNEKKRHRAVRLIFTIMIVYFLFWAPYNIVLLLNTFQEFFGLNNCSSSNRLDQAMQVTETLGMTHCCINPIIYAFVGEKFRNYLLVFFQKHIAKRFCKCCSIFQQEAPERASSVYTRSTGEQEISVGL

average historical pKi: 7.6
Substance: MIP1α: natural chemokine ligand of CCR5, used as standard compound in the SPA binding assay

From patent publication US7452992B2, “Heterocyclic compounds as CCR5 antagonists” (SmithKline Beecham Corporation, priority 2002, dated 2008)
